These results are taken from patent publication US20060166920A1, “Oligonucleotide based therapeutics” (Regents of the University of Michigan, priority 2004, published 2006).

For series [1], the system named is Bcl-xS. In words: Western blot of PC-3 cells transfected with Bcl-xL siRNA cassettes. Type of series: cell-based, human. Particulars: 0.4 μg siRNA cassette DNA per well, 48 hr. The procedure:
(§1) Human prostate cancer PC-3 cells and human breast cancer MCF-7 cells were transfected with the designed Bcl-xL dsRNA (siRNA) cassettes, using a transferrin-liposome system (LipofectaminePlus, Invitrogen). Briefly, 5×10^5 cells were plated per well in 6-well plates. After overnight culture, the cells were 60% to 70% confluent. The transfection was performed according to the manufacturer's instruction, with 0.4 μg siRNA cassette DNA per well. The cells were cultured for 48 hr, then harvested and cell lysates were made for Western blot analysis. 15 μg of protein were added to each lane for SDS-PAGE. […] Similar results were also observed in MCF-7 cells (See, e.g., FIG. 2). […] Therefore, with efficient delivery to the cells, the Bcl-xL siRNA effectively induces cell death.

For series [2], the system named is human Bcl-xL. Described as above. It counts as cell-based. Particulars: inferred from transfection efficiency of 40% to 50%. The protocol: as §1
Series [3] concerns human breast cancer MCF-7 cells. In words: Cell death of MCF-7 cells after transfection. It counts as cell-based. The note with it: MCF-7 cells 48 hr after transfection of siRNA cassette. The procedure:
as §1
MCF-7 and PC-3 cells were transfected with psiBcl-xL (transfection conditions were performed as described above). In some experiments, FuGene 6 (Roche) was used due to low toxicity and high efficiency for plasmid transfection. Briefly, 60% confluent cells were transfected with 1-3 μg psiBcl-xL or psiLuc DNA per well in a 6-well plate (DNA:FuGene 6 ratio=1 μg:3 μl). […] The transfection efficiency of FuGene 6 (as detected by green fluorescence protein (GFP) expression; psiBcl-xL posseses the green fluorescence protein (GFP) gene, See, e.g., FIG. 4) for MCF-7 cells was about 40% -50%. […]

Series [4] deals with Bcl-xS. In words: Western blot of MCF-7 cells transfected with Bcl-xL siRNA cassettes. It counts as cell-based, human. The note with it: 0.4 μg siRNA cassette DNA per well, 48 hr. The procedure:
as §1
For orientation: A western blot detects proteins with antibodies after separation by electrophoresis.

Series [5] concerns human Bcl-xL. The description is as above. It counts as cell-based. The procedure: as §1

B1: siRNA #3: Bcl-xL small hairpin siRNA cassette, SEQ ID NO: 5, 76 bp (nucleic acid, listed as Homo sapiens)
DNA: GGATCCCGCGATCCGACTCACCAATACCTTTGATATCCGAGGTATTGGTGAGTCGGATCGTTTTTTCCAAAAGCTT
modifications: expressed or natural sequence; the letters are possibly those of the target site
On to B1, for which the “effect on Bcl-xS expression” value in series [1] is reported as “without significantly affecting Bcl-xS expression”. Besides, the “Bcl-xL gene knockdown in the cells transfected” value in series [2] was around 100%. In addition, in series [3], the cell death result was “somewhat less cell death”.

B2: siRNA #2: Bcl-xL small hairpin siRNA cassette, SEQ ID NO: 4, 76 bp (nucleic acid, listed as Homo sapiens)
DNA: GGATCCCGCTTGTCTACGCTTTCCACGCATTGATATCCGTGCGTGGAAAGCGTAGACAAGTTTTTTCCAAAAGCTT
modifications: expressed or natural sequence; the letters are possibly those of the target site
Take B2: the “effect on Bcl-xS expression” value in series [4] and in series [1] was “without significantly affecting Bcl-xS expression” in each case. Besides, the “Bcl-xL gene knockdown in the cells transfected” value in series [2] is around 100%. The cell death entry in series [3] is “up to 50%”. The “down-regulation of Bcl-xL” value in series [5] (0.4 μg siRNA cassette DNA per well, LipofectaminePlus, 48 hr) was above 50%. In series [5] (inferred from transfection efficiency of 40%-50%), the “Bcl-xL down-regulation in the transfected cells” value is recorded as around 100%.
